For one molecule, Kd results are on record in paper PMC11134355 (JACS Au, 2024).

Common to all, as to experiment: fluorescence polarisation
Holding throughout (conditions): both partners purified
(Fluorescence polarisation rises when a labelled molecule tumbles more slowly, as on binding a larger partner.)

The target of assay [1] is TgPDCD5 middle-position peptide (FITC-VLTPAAQE) (T. gondii (GT1 strain), FITC label, printed before the first residue (FITC-VLTPAAQE)).
In assay [2] the target is TgPDCD5 N-terminal peptide (FITC-MQPEEFA) (T. gondii (GT1 strain), FITC label, printed before the first residue (FITC-MQPEEFA)).
The target in assay [3] is TgPDCD5 C-terminal peptide (FITC-KNTPKVTM) (T. gondii (GT1 strain), FITC label, printed before the first residue (FITC-KNTPKVTM)).

B1: TgCyp18 (enzyme)
chain: not shown
One may read the Kd as the equilibrium constant for the complex coming apart. Consider B1, for which the equilibrium dissociation constant (Kd) in assay [1] is 1200 µM; in assay [2], 1400 µM; in assay [3] it was 311 µM.
